Assay results from US20260275317A1, “CHIMERIC ENDOLYSINS WITH ACTIVITY AGAINST STREPTOCOCCI AND STAPHYLOCOCCI” (UNIVERSITEIT GENT, priority 2023, published 2026).
Where “and” joins values, the source holds several entries; their conditions need not be identical. Equal values may be shown once.

Key:
S. agalactiae = assay: Time killing assay (TKA), S. agalactiae; type: cell-based, Streptococcus agalactiae; conditions: 0.3 μM
Experimental: (§1) Concerning the time killing assay, an overnight bacterial culture was diluted 1:10 for S. uberis, S. agalactiae-& dysgalactiae or 1:100 for S. aureus in PBS or UHT-pasteurized whole cow's milk. […] Finally, these fractions were serially diluted 1:10 in PBS. 5 μL of each fraction was spotted on TSA or BHI-agar and incubated overnight at 37° C. The following day, colony forming units (CFU) were counted and converted to CFU/mL to calculate logarithmic reductions in comparison with the negative control. The relative scores were calculated by dividing the observed logarithmic reduction for each endolysin by the maximal reduction observed for that specific condition and strain. Next, this value was divided by the number of conditions and strains tested (i.e., 8=4 bacterial strains×2 conditions (PBS/UHT-milk)). As such, the best performing candidate in each individual assay received a score of 0.125 (=(1/1)/8). […] Turbidity reduction assays were performed by combining 100 μL of overnight grown bacterial cells with an equal volume of purified enzyme at the desired concentration. Bacterial cells were washed with PBS and resuspended in a 1:1 ratio with enzyme to an OD600 of approximately 1.0. Next, the OD600 was measured using a Tecan infinite 200 PRO plate reader (Tecan, Switzerland) every 15 seconds at 37° C., shaking the 96-well plate between each measurement.
(§2) Time killing and turbidity reduction assays were performed as previously described in 1.3.1.
(§3) Time killing assays were performed as previously described in 1.3.1.

S. dysgalactiae = assay: Turbidity reduction assay (TRA), S. dysgalactiae; type: cell-based, Streptococcus dysgalactiae
Experimental: Concerning the time killing assay, an overnight bacterial culture was diluted 1:10 for S. uberis, S. agalactiae-& dysgalactiae or 1:100 for S. aureus in PBS or UHT-pasteurized whole cow's milk. A volume of 10 μL thereof was combined with an equal amount of chimeric endolysin in PBS (or only PBS as negative control) in triplicate and incubated in a covered 96-well microtiter plate at 37° C. for 2 h. The dose was low (i.e. 0.25 μM), but this was chosen to differentiate between less and better performing variants, consequently allowing a ranking. Finally, these fractions were serially diluted 1:10 in PBS. 5 μL of each fraction was spotted on TSA or BHI-agar and incubated overnight at 37° C. The following day, colony forming units (CFU) were counted and converted to CFU/mL to calculate logarithmic reductions in comparison with the negative control. The relative scores were calculated by dividing the observed logarithmic reduction for each endolysin by the maximal reduction observed for that specific condition and strain. Next, this value was divided by the number of conditions and strains tested (i.e., 8=4 bacterial strains×2 conditions (PBS/UHT-milk)). As such, the best performing candidate in each individual assay received a score of 0.125 (=(1/1)/8). […] Turbidity reduction assays were performed by combining 100 μL of overnight grown bacterial cells with an equal volume of purified enzyme at the desired concentration. Bacterial cells were washed with PBS and resuspended in a 1:1 ratio with enzyme to an OD600 of approximately 1.0. Next, the OD600 was measured using a Tecan infinite 200 PRO plate reader (Tecan, Switzerland) every 15 seconds at 37° C., shaking the 96-well plate between each measurement.
as §2

[1] = system: stationary phase S. uberis; assay: Time killing assay (TKA), S. uberis; type: cell-based, Streptococcus uberis; conditions: for ΔLog10 (CFU/mL): 1 h
Experimental: as §1, §2, §3

B1: NC5: chimeric endolysin SEQ ID NO: 17; HIV-1 TAT + PlySs2 CHAP + Ply1081 CW_7 + PlySs9 amidase_3 (protein)
chain: MYGRKKRRQRRRGATTVNEALNNVRAQVGSGVSVGNGECYALASWYERMISPDATVGLGAGVGWVSGAIGDTISAKNIGSSYNWQANGWTVSTSGPFKAGQIVTLGATPGNPYGHVVIVEAVDGDRLTILEQNYGGKRYPVRNYYSAASYRQQVVHYITPPGTVAQSAPNLAGAGIDQLVQETLAGKYGNGEQRKAALGSQYQAVMAVINGKATAPKKTVDQLAQEVIQGKHGNGEDRKKSLGPDYDAVQKRVTEILKGSPSGNIPKTPSDAPKSEVVNSSTEPKTEETGANGKATDTKITKGSGKHLVICGHGQGRTGYDPGAVNAKLGITEAGKVRELSKLMSKYSGQQIDFITEQNVYDYRSITSIGKGYDSITELHFNAFNGSAKGTEVLIQSSLEADKEDMAILSLLSRYFQNRGIKKVDWLYNANQAASRGYTYRLVEIAFIDNEQDMAIFENKKEDIAKGLVSAITGVEVKTIVPSPPSSTVGSSGTPSKSIYLVGDSLRVLPHATHYQTGQKIANWVKGRTYKILQVKNVHQSNSKRAYLLDGIKSWVLEQDVEGTTKGHSKYHHHHHH
For B1, the “ΔLog10 (CFU/mL)” value (S. agalactiae; S. agalactiae 1, 1 h) was 1.49 Log10 (CFU/mL), the “ΔLog10 (CFU/mL)” value (S. agalactiae; S. agalactiae 2, 1 h) was 1.50 Log10 (CFU/mL) and the “ΔLog10 (CFU/mL)” value (S. agalactiae; S. agalactiae 3, 1 h) was 0.00 Log10 (CFU/mL). For the same molecule, the log10 reduction (S. agalactiae; mastitis-derived S. agalactiae, versus PBS) was 1.50±0.12 log10, the “Δ log10, reductions up to” value (S. agalactiae; three clinical S. agalactiae isolates) was at most 1.50±0.02 log10 and the “lysis speed (ΔOD600/min)/μM” value (S. dysgalactiae; S. dysgalactiae 1, 0.3 μM) was 0.25 (ΔOD600/min)/μM. For the same molecule, the ΔOD600 (S. dysgalactiae; S. dysgalactiae 1, 1 h, 0.3 μM) was 0.48, the “lysis speed (ΔOD600/min)/μM” value (S. dysgalactiae; S. dysgalactiae 2, 0.3 μM) was 0.30 (ΔOD600/min)/μM and the ΔOD600 (S. dysgalactiae; S. dysgalactiae 2, 1 h, 0.3 μM) was 0.66. The “lysis speed (ΔOD600/min)/μM” value (S. dysgalactiae; S. dysgalactiae 3, 0.3 μM) was 0.25 (ΔOD600/min)/μM, the ΔOD600 (S. dysgalactiae; S. dysgalactiae 3, 1 h, 0.3 μM) was 0.51 and the “ΔOD, reductions up to” value (S. dysgalactiae; three clinical S. dysgalactiae isolates, 0.3 μM) was at most 0.48±0.03. The “ΔLog10 (CFU/mL)” value ([1]; Clinical S. uberis 1 (Unknown ST and GCC), 0.3 μM) was 0.03 Log10 (CFU/mL), the “ΔLog10 (CFU/mL)” value ([1]; Clinical S. uberis 2 (Unknown ST, GCC 5), 0.3 μM) was 4.05±0.07 Log10 (CFU/mL) and 4.05 Log10 (CFU/mL) and the “ΔLog10 (CFU/mL)” value ([1]; Clinical S. uberis 3 (Unknown ST, GCC 5), 0.3 μM) was 1.82 Log10 (CFU/mL). The “ΔLog10 (CFU/mL)” value ([1]; Clinical S. uberis 4 (ST 815, GCC 143), 0.3 μM) was 0.00 Log10 (CFU/mL), the “ΔLog10 (CFU/mL)” value ([1]; Clinical S. uberis 5 (ST 944, GCC 5), 0.3 μM) was 0.71 Log10 (CFU/mL) and the “Δ log10” value ([1]; S. uberis 0140J, 0.3 μM) was 1.16±0.06 log10. The “ΔLog10 (CFU/mL)” value ([1]; Subclinical S. uberis 1 (ST 808, GCC 143), 0.3 μM) was 3.02±0.37 Log10 (CFU/mL) and 3.02 Log10 (CFU/mL), the “ΔLog10 (CFU/mL)” value ([1]; Subclinical S. uberis 2 (Unknown ST and GCC), 0.3 μM) was 1.13 Log10 (CFU/mL) and the “ΔLog10 (CFU/mL)” value ([1]; Subclinical S. uberis 3 (Unknown ST, GCC 5), 0.3 μM) was 1.24 Log10 (CFU/mL). The “ΔLog10 (CFU/mL)” value ([1]; Subclinical S. uberis 4 (Unknown ST and GCC), 0.3 μM) was 2.48 Log10 (CFU/mL) and the log10 reduction ([1]; mastitis-derived S. uberis GCC ST-5, 0.3 μM, versus PBS) was 1.17±0.06 log10.
